For one molecule, EC50 of intracellular calcium flux results are on record in patent US6673915.

The assay addresses human CCR2b with the FLAG epitope at the extreme amino-terminus, stably expressed on HEK-293 cells (Example 10B) (human), P41597. As to the kind of experiment: cell-based or functional assay.

human CCR2b with the FLAG epitope at the extreme amino-terminus, stably expressed on HEK-293 cells (Example 10B) (human), P41597, sequence (P41597 whole entry): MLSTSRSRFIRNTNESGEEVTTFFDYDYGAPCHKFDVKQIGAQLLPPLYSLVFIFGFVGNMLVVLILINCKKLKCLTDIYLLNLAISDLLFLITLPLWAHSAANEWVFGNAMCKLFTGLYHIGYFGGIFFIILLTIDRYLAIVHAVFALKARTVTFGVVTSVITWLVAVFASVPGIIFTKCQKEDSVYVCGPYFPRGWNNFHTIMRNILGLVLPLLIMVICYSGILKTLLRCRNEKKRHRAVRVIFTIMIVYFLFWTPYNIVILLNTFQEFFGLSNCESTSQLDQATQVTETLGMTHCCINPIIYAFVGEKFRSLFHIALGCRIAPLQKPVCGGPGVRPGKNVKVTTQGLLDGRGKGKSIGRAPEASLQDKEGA

B1: murine MCP-5, predicted mature 82 amino acid protein beginning with the N-terminal glycine (E. coli, PeproTech), Q62401 23-104 (ligand)
chain: GPDAVSTPVTCCYNVVKQKIHVRKLKSYRRITSSQCPREAVIFRTILDKEICADPKEKWVKNSINHLDKTSQTFILEPSCLG
Consider B1, for which the EC50 of intracellular calcium flux came out at 5 nM.
